Results on four molecules are retold here after paper PMC5645086, “Analysis of the interaction of Plexin-B1 and Plexin-B2 with Rnd family proteins” (PLoS ONE, 2017).

One data set has as its target Rnd2 (Homo sapiens) (UniProt P52198). Conditions: cited from earlier work.
Data set [1] deals with the molecule itself. The data set can be described thus: ITC; control dilution: Plexin-B1-RBD titrated into buffer alone, same conditions as the binding titrations; dimer to monomers.
For data set [2], the target named is T1, Rnd3-N86R (GTP-binding domain, residues 16-200) (UniProt P61587 16-200, N86R).
T1 construct: source: E. coli BL21 (DE3), purified in the same way as wild type Rnd3; not shown: His6, N-terminal, cleaved
T1 sequence (looked up): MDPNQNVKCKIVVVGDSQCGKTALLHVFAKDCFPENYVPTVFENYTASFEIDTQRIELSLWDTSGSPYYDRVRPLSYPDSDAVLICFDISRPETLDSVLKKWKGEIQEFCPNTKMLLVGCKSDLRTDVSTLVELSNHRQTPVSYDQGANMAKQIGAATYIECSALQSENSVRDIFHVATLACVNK
The data set can be described thus: ITC; Plexin-B-RBD (400-600 uM, syringe) titrated into Rnd protein (40-60 uM, cell); 25°C; buffer 2: 50 mM sodium phosphate pH 7.0, 150 mM NaCl, 4 mM MgCl2, 3 mM DTT; independent binding sites model. Conditions: both partners purified.

Data set [3] deals with T2, Rnd3-F124Y (GTP-binding domain, residues 16-200) (UniProt P61587 16-200, F124Y).
T2 construct: source: E. coli Rosetta 2 (DE3), purified in the same way as wild type Rnd3; not shown: His6, N-terminal, cleaved
T2 sequence (looked up): T1 sequence (looked up) with R71N, F109Y
The description is as above. To be noted: both partners purified.

The target of data set [4] is T3, Rnd3-Y60A (GTP-binding domain, residues 16-200) (UniProt P61587 16-200, Y60A).
T3 construct: source: E. coli BL21 (DE3), purified in the same way as wild type Rnd3; not shown: His6, N-terminal, cleaved
T3 sequence (looked up): T1 sequence (looked up) with Y45A, R71N
The data set is described as above. To be noted: both partners purified.

The target of data set [5] is T4, Rnd3 GTP-binding domain (residues 16-200), wild type (UniProt P61587 16-200).
T4 construct: source: E. coli BL21 (DE3), purified (Nickel-NTA, TEV cleavage; in some cases ion exchange or size exclusion chromatography); not shown: His6, N-terminal, cleaved
T4 sequence (looked up): T1 sequence (looked up) with R71N
Described as above. To be noted: both partners purified.

In data set [6] the target is T5, Rnd2 GTP-binding domain (residues 2-184) (UniProt P52198 2-184).
T5 construct: source: E. coli BL21 (DE3), purified (Nickel-NTA, TEV cleavage; in some cases ion exchange or size exclusion chromatography); not shown: His6, N-terminal, cleaved
T5 sequence (looked up): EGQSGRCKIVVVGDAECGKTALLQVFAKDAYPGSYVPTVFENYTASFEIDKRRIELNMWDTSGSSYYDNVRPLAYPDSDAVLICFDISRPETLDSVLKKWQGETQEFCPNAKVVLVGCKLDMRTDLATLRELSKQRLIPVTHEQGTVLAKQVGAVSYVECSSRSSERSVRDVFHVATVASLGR
The description is as above. Conditions: both partners purified.

For data set [7], the target named is T6, Rnd1 GTP-binding domain (residues 1-191) (UniProt Q92730 1-191).
T6 construct: source: E. coli Rosetta 2 (DE3), purified (Nickel-NTA, TEV cleavage; in some cases ion exchange or size exclusion chromatography); not shown: His6, N-terminal, cleaved
T6 sequence (looked up): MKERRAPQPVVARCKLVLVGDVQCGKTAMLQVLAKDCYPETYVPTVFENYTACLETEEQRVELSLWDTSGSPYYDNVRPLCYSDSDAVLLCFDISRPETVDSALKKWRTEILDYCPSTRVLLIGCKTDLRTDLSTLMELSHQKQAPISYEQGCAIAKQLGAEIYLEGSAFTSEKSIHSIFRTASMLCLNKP
Described as above. Conditions: both partners purified.

The target of data set [8] is T7, Rnd1 GTP-binding domain (residues 1-191) (UniProt Q92730 1-191).
T7 construct: Cloned into pETDuet-1; tag removed with TEV protease; source: E. coli Rosetta 2 (DE3), purified (Nickel-NTA chromatography, TEV cleavage; in some cases ion exchange or size exclusion chromatography); not shown: His6, N-terminal, cleaved
T7 sequence (looked up): T6 sequence (looked up)
The data set can be described thus: ITC; Plexin-B1-RBD in the syringe titrated into Rnd1 in the cell; low salt buffer 1: 50 mM sodium phosphate pH 7.0, 50 mM NaCl, 4 mM MgCl2, 3 mM DTT, 25°C; independent binding sites model; mean and SD of 5 fitted binding curves. Conditions: both partners purified.

Changes are numbered by the printed parent chain.

Rnd2 (Homo sapiens), sequence (P52198 1-224): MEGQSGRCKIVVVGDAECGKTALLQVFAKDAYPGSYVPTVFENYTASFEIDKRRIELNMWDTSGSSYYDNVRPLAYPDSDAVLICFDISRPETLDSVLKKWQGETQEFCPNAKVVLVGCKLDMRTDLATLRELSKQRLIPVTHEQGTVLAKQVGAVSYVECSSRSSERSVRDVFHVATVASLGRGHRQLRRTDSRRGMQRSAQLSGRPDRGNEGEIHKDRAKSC

Plexin-B1 RBD (from UniProt O43157): the Kd in the data set with Rnd2 (Homo sapiens) is above 20 µM.

B1: Plexin-B1-RBD (Rho-binding domain of Plexin-B1, residues 1746-1851), histidine-tagged (domain or fragment, UniProt O43157 1746-1851, looked up)
chain: YRPLTLNALLAVGPGAGEAQGVPVKVLDCDTISQAKEKMLDQLYKGVPLTQRPDPRTLDVEWRSGVAGHLILSDEDVTSEVQGLWRRLNTLQHYKVPDGATVALVP
notes: A TEV protease site lies between the hexahistidine tag and the domain; Vector pETDuet-1; also called HisPlexin-B1; Plexin-B-RBD; source: E. coli BL21 (DE3), purified (Nickel-NTA; in some cases ion exchange or size exclusion chromatography); not shown: His6, N-terminal, kept
Take B1: in data set [1], the binding result was “binds”. Also, the Kd was 8.12 µM in [2]; 4.6 µM in [3]; 7.26 µM in [4]; 6.62 µM in data set [5]; 7.64 µM in data set [6]; 2.37 µM in data set [7]. Besides, the dH in data set [2] was -5.53 kcal/mol; in [3], -8.65 kcal/mol; in [4] it was -2.76 kcal/mol; in [5], -9.73 kcal/mol; in data set [6], -7.33 kcal/mol; in [7], -15.6 kcal/mol. Besides, the “stoichiometry N” value in data set [2] was found to be 0.91; in data set [3], 1.04; in data set [4] it was 1.02; in [5], 1.07; in data set [6], 1.16; in [7] it was 0.85.

B2: Plexin-B1-RBD (Rho-binding domain of Plexin-B1, residues 1746-1851), histidine-tagged (domain or fragment, UniProt O43157 1746-1851, looked up)
chain: B1 chain
notes: A TEV protease cleavage site lies between the hexahistidine tag and the domain; removal of the tag was inefficient for Plexin-B1-RBD, so the tag was kept; Cloned into pETDuet-1; also called HisPlexin-B1; source: E. coli BL21 (DE3), purified (Nickel-NTA chromatography; in some cases ion exchange or size exclusion chromatography); not shown: His6, N-terminal, kept
As to B2, in data set [8], the Kd stood at 5.37 µM and the “stoichiometry N” value turned out to be 0.94.

B3: Plexin-B2-RBD (Rho-binding domain of Plexin-B2, residues 1452-1562) (domain or fragment, UniProt O15031 1452-1562, looked up)
chain: GLLGDDVEYAPLTVSVIVQDEGVDAIPVKVLNCDTISQVKEKIIDQVYRGQPCSCWPRPDSVVLEWRPGSTAQILSDLDLTSQREGRWKRVNTLMHYNVRDGATLILSKVG
notes: Vector pETDuet-1; tag removed with TEV protease; source: E. coli BL21 (DE3), purified (Nickel-NTA, TEV cleavage; in some cases ion exchange or size exclusion chromatography); not shown: His6, N-terminal, cleaved
As for B3, the Kd in [2] was determined as 3.86 µM; in data set [3], 2.97 µM; in [4], 3.06 µM; in data set [5], 3.01 µM; in data set [6], 4.93 µM; in [7], 11.1 µM. Also, the dH was -7.37 kcal/mol in data set [2]; -7.73 kcal/mol in data set [3]; -5.64 kcal/mol in [4]; -9.33 kcal/mol in [5]; -4.29 kcal/mol in [6]; -6.67 kcal/mol in data set [7]. Moreover, the “stoichiometry N” value was 1.13 in data set [2]; 1.14 in [3]; 1.06 in [4]; 1.23 in data set [5]; 1.15 in data set [6]; 1.05 in [7].
